Reference: patent publication EP4353742A1 (Todd Pharm Co., Ltd., dated 2024)

biological target: FGFR1c; assay: cell-based or functional assay

| EC50 of FGFR1c activation (luciferase reporter, HEK293 cells expressing FGFR1c and β-Klotho), fold increase compared to the wild type [fold] | Binder |
| --- | --- |
| 1.73 | FGF21 variant ① (Gln184Glu & Gln201His & Ala208Thr) (ligand) DSSPLLQFGGQVRQRYLYTDDAQQTEAHLEIREDGTVGGAADQSPESLLQLKALKPGVIQILGVKTSRFLCQRPDGALYGSLHFDPEACSFRELLLEDGYNVYQSEAHGLPLHLPGNKSPHRDPAPRGPARFLPLPGLPPALPEPPGILAPEPPDVGSSDPLSMVGPSHGRSPSYTS |
| 4.38 | FGF21 variant ② (Ser195Gly & Pro199Gly & Ser200Gly) (ligand) DSSPLLQFGGQVRQRYLYTDDAQQTEAHLEIREDGTVGGAADQSPESLLQLKALKPGVIQILGVKTSRFLCQRPDGALYGSLHFDPEACSFRELLLEDGYNVYQSEAHGLPLHLPGNKSPHRDPAPRGPARFLPLPGLPPALPEPPGILAPQPPDVGSSDPLGMVGGGQGRSPSYAS |
| 6.03 | FGF21 variant ③ (combination of variants ① and ②) (ligand) DSSPLLQFGGQVRQRYLYTDDAQQTEAHLEIREDGTVGGAADQSPESLLQLKALKPGVIQILGVKTSRFLCQRPDGALYGSLHFDPEACSFRELLLEDGYNVYQSEAHGLPLHLPGNKSPHRDPAPRGPARFLPLPGLPPALPEPPGILAPEPPDVGSSDPLGMVGGGHGRSPSYTS |
